First the molecules themselves.
B1: Cullin-9, residues 2234 to 2275; numbered along this chain, Q8IWT3 (parent)
chain: KRCPSCQAPIEKNEGCLHMTCAKCNHGFCWRCLKSWKPNHKD

± gives the uncertainty stated by the source.

In this data set the parent is B1. The data set is described as follows: abundance fitness (aPCA) (normalised: wild type 0, dead -1); higher = more abundant; growth selection in yeast, the domain comes from the species named. Conditions: Homo sapiens.
With KRCPSCQAPIEKNEGCLDMTCAKCNHGFCWRCLKSWKPNHKD [H18D], the abundance fitness was -0.274 ± 0.16. For the variant KRCPSCQAPIEKNEGCLIMTCAKCNHGFCWRCLKSWKPNHKD [H18I], the abundance fitness was -0.155 ± 0.19.

With KRCPSCQAPIEKNEGCLCMTCAKCNHGFCWRCLKSWKPNHKD [H18C], the abundance fitness is -0.425 ± 0.14. KRCPSCQAPIEKNEGCLVMTCAKCNHGFCWRCLKSWKPNHKD [H18V]: the abundance fitness is -0.393 ± 0.099. The same measure for KRCPSCQAPIEKNEGCLAMTCAKCNHGFCWRCLKSWKPNHKD [H18A]: -0.142 ± 0.083. KRCPSCQAPIEKNEGCLQMTCAKCNHGFCWRCLKSWKPNHKD [H18Q]: the abundance fitness stood at 0.106 ± 0.1. Consider KRCPSCQAPIEKNEGCLRMTCAKCNHGFCWRCLKSWKPNHKD [H18R], for which the abundance fitness is -0.016 ± 0.073. As for KRCPSCQAPIEKNEGCLGMTCAKCNHGFCWRCLKSWKPNHKD [H18G], the figure is -0.216 ± 0.081. KRCPSCQAPIEKNEGCLYMTCAKCNHGFCWRCLKSWKPNHKD [H18Y]: the abundance fitness was -0.503 ± 0.16.

Turning to KRCPSCQAPIEKNEGCLTMTCAKCNHGFCWRCLKSWKPNHKD [H18T], the abundance fitness is -0.438 ± 0.12. For the variant KRCPSCQAPIEKNEGCLEMTCAKCNHGFCWRCLKSWKPNHKD [H18E], the abundance fitness worked out at 0.019 ± 0.094.

In the case of KRCPSCQAPIEKNEGCLPMTCAKCNHGFCWRCLKSWKPNHKD [H18P], the abundance fitness was -0.427 ± 0.098. The same measure for KRCPSCQAPIEKNEGCLLMTCAKCNHGFCWRCLKSWKPNHKD [H18L]: -0.104 ± 0.09; for KRCPSCQAPIEKNEGCLFMTCAKCNHGFCWRCLKSWKPNHKD [H18F]: -0.058 ± 0.29; for KRCPSCQAPIEKNEGCLMMTCAKCNHGFCWRCLKSWKPNHKD [H18M]: 0.154 ± 0.1. With KRCPSCQAPIEKNEGCLWMTCAKCNHGFCWRCLKSWKPNHKD [H18W], the abundance fitness is -0.329 ± 0.09.

For the variant KRCPSCQAPIEKSEGCLHMTCAKCNHGFCWRCLKSWKPNHKD [N13S], the abundance fitness is -0.096 ± 0.1. Regarding KRCPSCQAPIEKVEGCLHMTCAKCNHGFCWRCLKSWKPNHKD [N13V], the abundance fitness was 0.051 ± 0.085. For KRCPSCQAPIEKLEGCLHMTCAKCNHGFCWRCLKSWKPNHKD [N13L], the abundance fitness came to 0.229 ± 0.092. Regarding KRCPSCQAPIEKREGCLHMTCAKCNHGFCWRCLKSWKPNHKD [N13R], the abundance fitness is -0.034 ± 0.075. Consider KRCPSCQAPIEKKEGCLHMTCAKCNHGFCWRCLKSWKPNHKD [N13K], for which the abundance fitness stood at 0.117 ± 0.11. As for KRCPSCQAPIEKTEGCLHMTCAKCNHGFCWRCLKSWKPNHKD [N13T], the abundance fitness turned out to be 0.185 ± 0.1. For KRCPSCQAPIEKQEGCLHMTCAKCNHGFCWRCLKSWKPNHKD [N13Q], the abundance fitness is -0.044 ± 0.097. The same measure for KRCPSCQAPIEKWEGCLHMTCAKCNHGFCWRCLKSWKPNHKD [N13W]: 0 ± 0.1; for KRCPSCQAPIEKHEGCLHMTCAKCNHGFCWRCLKSWKPNHKD [N13H]: -0.165 ± 0.14; for KRCPSCQAPIEKMEGCLHMTCAKCNHGFCWRCLKSWKPNHKD [N13M]: -0.023 ± 0.097. The same measure for KRCPSCQAPIEKPEGCLHMTCAKCNHGFCWRCLKSWKPNHKD [N13P]: 0.183 ± 0.12; for KRCPSCQAPIEKIEGCLHMTCAKCNHGFCWRCLKSWKPNHKD [N13I]: 0.493 ± 0.18; for KRCPSCQAPIEKYEGCLHMTCAKCNHGFCWRCLKSWKPNHKD [N13Y]: -0.244 ± 0.16. Turning to KRCPSCQAPIEKNEGCLHITCAKCNHGFCWRCLKSWKPNHKD [M19I], the abundance fitness was -0.008 ± 0.19.

On to KRCPSCQAPIEKNEGCLHLTCAKCNHGFCWRCLKSWKPNHKD [M19L], for which the abundance fitness was -0.034 ± 0.092. As for KRCPSCQAPIEKNEGCLHFTCAKCNHGFCWRCLKSWKPNHKD [M19F], the abundance fitness was -0.48 ± 0.22. The same measure for KRCPSCQAPIEKNEGCLHWTCAKCNHGFCWRCLKSWKPNHKD [M19W]: -0.223 ± 0.1; for KRCPSCQAPIEKNEGCLHYTCAKCNHGFCWRCLKSWKPNHKD [M19Y]: -0.803 ± 0.46; for KRCPSCQAPIEKNEGCLHNTCAKCNHGFCWRCLKSWKPNHKD [M19N]: -0.161 ± 0.18. Turning to KRCPSCQAPIEKNEGCLHHTCAKCNHGFCWRCLKSWKPNHKD [M19H], the abundance fitness is -0.405 ± 0.21. In the case of KRCPSCQAPIEKNEGCLHVTCAKCNHGFCWRCLKSWKPNHKD [M19V], the abundance fitness amounted to 0.264 ± 0.076. With KRCPSCQAPIEKNEGCLHATCAKCNHGFCWRCLKSWKPNHKD [M19A], the abundance fitness is -0.048 ± 0.095. Turning to KRCPSCQAPIEKNEGCLHGTCAKCNHGFCWRCLKSWKPNHKD [M19G], the abundance fitness is -0.22 ± 0.074. Consider KRCPSCQAPIEKNEGCLHDTCAKCNHGFCWRCLKSWKPNHKD [M19D], for which the abundance fitness is 0.046 ± 0.13. Regarding KRCPSCQAPIEKNEGCLHPTCAKCNHGFCWRCLKSWKPNHKD [M19P], the abundance fitness was 0.012 ± 0.1. As for KRCPSCQAPIEKNEGCLHRTCAKCNHGFCWRCLKSWKPNHKD [M19R], the figure is -0.28 ± 0.08. As to KRCPSCQAPIEKNEGCLHCTCAKCNHGFCWRCLKSWKPNHKD [M19C], the abundance fitness is -0.012 ± 0.13.

Take KRCPSCQAPIEKNEGCLHTTCAKCNHGFCWRCLKSWKPNHKD [M19T]: the abundance fitness was 0.182 ± 0.11. KRCPSCQAPIEKNEGCLHQTCAKCNHGFCWRCLKSWKPNHKD [M19Q]: the abundance fitness was -0.019 ± 0.12. KRCPSCQAPIEKNEGCLHKTCAKCNHGFCWRCLKSWKPNHKD [M19K]: the abundance fitness turned out to be 0.003 ± 0.13.

KRCPSCQAPIEKNEGCLHETCAKCNHGFCWRCLKSWKPNHKD [M19E]: the abundance fitness was -0.186 ± 0.1. On to KRCPSCQAPIEKNEGCLHSTCAKCNHGFCWRCLKSWKPNHKD [M19S], for which the abundance fitness came to 0.016 ± 0.097. In the case of KRCPSCQAPIEKNEGCLHMDCAKCNHGFCWRCLKSWKPNHKD [T20D], the abundance fitness is -0.166 ± 0.14. In the case of KRCPSCQAPIEKNEGCLHMLCAKCNHGFCWRCLKSWKPNHKD [T20L], the abundance fitness is -0.099 ± 0.097. For KRCPSCQAPIEKNEGCLHMCCAKCNHGFCWRCLKSWKPNHKD [T20C], the abundance fitness is -0.447 ± 0.13.

In the case of KRCPSCQAPIEKNEGCLHMGCAKCNHGFCWRCLKSWKPNHKD [T20G], the abundance fitness is -0.288 ± 0.083. As to KRCPSCQAPIEKNEGCLHMICAKCNHGFCWRCLKSWKPNHKD [T20I], the abundance fitness turned out to be 0.196 ± 0.16.

KRCPSCQAPIEKNEGCLHMHCAKCNHGFCWRCLKSWKPNHKD [T20H]: the abundance fitness is -0.154 ± 0.15. As to KRCPSCQAPIEKNEGCLHMACAKCNHGFCWRCLKSWKPNHKD [T20A], the abundance fitness was -0.218 ± 0.085.

KRCPSCQAPIEKNEGCLHMECAKCNHGFCWRCLKSWKPNHKD [T20E]: the abundance fitness is -0.306 ± 0.11. With KRCPSCQAPIEKNEGCLHMFCAKCNHGFCWRCLKSWKPNHKD [T20F], the abundance fitness was -0.462 ± 0.24.

For KRCPSCQAPIEKNEGCLHMMCAKCNHGFCWRCLKSWKPNHKD [T20M], the abundance fitness is -0.035 ± 0.12.

KRCPSCQAPIEKNKGCLHMTCAKCNHGFCWRCLKSWKPNHKD [E14K]: the abundance fitness was -0.473 ± 0.17. As for KRCPSCQAPIEKNVGCLHMTCAKCNHGFCWRCLKSWKPNHKD [E14V], the figure is -0.397 ± 0.092.

These data come from the Human Domainome abundance scans (Beltran et al. 2025).
